From publication PMC11192315 (PLOS Pathogens, 2024)
Substitutions are numbered along the chain they refer to. Names and notes keep the numbering of the source.

B1: JM-1A N59F mutant (antibody, V domains shown)
VH: QVQLQQSGPGLVKPSGTLSLTCAVSGASISSGDWWSWVRQSPGRGLEWIGGIFHSGTTFYSPSLKSRVTMSVDQPKNQFSLHLTSVTAADTAVYYCARMRGIFDYWGQGTLVTVSS
VL: DIQLTQSPSSLSVSVGDRVTITCRASQAISNSLAWYQQKPGKAPKLLLYAASTLESGVPSRFSGSGSGTDFTLTISSLQPEDFATYYCQHYYSTPFFGGGTKVEIK
B2: JM-1A-G32F (antibody, V domains shown)
VH: B1 VH with G32F, F59N
VL: B1 VL

Assays:
[1] = target: RBD of SARS-CoV-2 Omicron BA.1 (SARS-CoV-2 Omicron BA.1, E484 to A484 | Q493R | Q498R | N501Y); experiment: cell-based or functional assay
[2] = target: RBD of SARS-CoV-2 Omicron BA.2 (SARS-CoV-2 Omicron BA.2, D405N | R408S | E484 to A484 | Q493R); experiment: cell-based or functional assay

Binder | IC50, neutralisation of pseudotyped lentivirus with Omicron BA.1 spike [1] [µg/mL] | IC50, neutralisation of pseudotyped lentivirus with Omicron BA.2 spike [2] [µg/mL]
B1 | 0.018 | 0.011
B2 | 0.019 | 0.03
